Test results published in patent US20250011734A1, “DGAT1/2-INDEPENDENT ENZYME SYNTHESIZING STORAGE LIPIDS (DIESL)” (STICHTING HET NEDERLANDS KANKER INSTITUUT-ANTONI VAN …, priority 2021, published 2025).

Columns and labels:
[1] = tested on: HAP1 4KO cells (ΔDGAT1ΔDGAT2ΔDIESLΔTMX1); experiment: Shotgun lipidomics of HAP1 4KO cells reconstituted with WT or H130A DIESL; format: cell-based, human; details: HAP1 4KO cells expressing active (WT) or catalytic-inactive (H130A) DIESL; FIG. 4B
Experimental: HAP1 4KO (ΔDGAT1ΔDGAT2ΔDIESLΔTMX1) cells, reconstituted with WT or H130A DIESL, were cultured in complete medium. Prior to collection, cells were cultured in serum-free IMDM for thirty minutes. Cells were then collected by trypsinization, washed twice with PBS and three million cells (in triplicate) were pelleted and stored at −80° C. For E. coli samples, 2 ml of induced culture (as described above, in triplicate) was pelleted and incubated overnight at −80° C. The following day, bacterial pellets were thawed and incubated in 25 μg/ml lysozyme in PBS for 30 minutes. Cells were pelleted, washed in PBS, and then pelleted again before resuspension in distilled water. Cells were sonicated at 60% amplitude for 5 minutes, in continuous 5-second on/25-second off cycles. The insoluble fraction was pelleted by centrifugation and the lysate (supernatant) was quantified for protein and stored at −80° C. […]
Samples were analyzed by direct infusion on a QExactive mass spectrometer (Thermo Scientific) equipped with a TriVersa NanoMate ion source (Advion Biosciences). Samples were analyzed in both positive and negative ion modes with a resolution of Rm/z=200=280000 for MS and Rm/z=200=17500 for MSMS experiments, in a single acquisition. […]
Data were analyzed by Lipotype GmbH with in-house developed lipid identification software based on LipidXplorer (41, 42). […]

E. coli = experiment: Recombinant expression of DIESL in E. coli, TAG by TLC and mass spectrometry; format: cell-based; details: human DIESL preceded by a bacterial membrane targeting sequence, FIG. 4F
Experimental: E. coli BL21 were transformed with pET24 or pET28a plasmids expressing the indicated construct. Single clones were cultured up to a 5 ml volume in LB broth at OD 0.5 at 37° C. Cultures were then transferred to 25° C. for one hour, and then expression was induced with 0.2 mM IPTG for 16h. For SDS-PAGE and immunoblot analysis, 100 ul of culture was pelleted for 5 minutes at 3,500 g before lysis in SDS-PAGE sample buffer.
Equivalent numbers of human cells grown to confluence in 6-well plates were first washed with PBS. Cells were then incubated twice in 400 μl extraction buffer (3:2 hexane:isopropanol) for 10 minutes (35). E. coli cell pellets from 2 ml of overnight culture were incubated in 500 μl extraction buffer (only once) for 30 minutes while rotating. Extractions were pooled and dried under nitrogen stream, to a volume of ˜10 μl, and then spotted on silica gel 60 TLC plates (Sigma-Aldrich). Plates were placed in a TLC tank containing a mobile phase to separate neutral lipids (80:20:1 hexane:diethyl ether:acetic acid) or polar lipids (60:50:4:1 chloroform:methanol:water:acetic acid). […] After drying, NBD fluorescence was monitored on a Universal Hood GelDoc system (Bio-Rad) using the fluorescein channel. […] (shaking at 850 rpm) for the indicated time (final [14C] DAG concentration, 50 μM; total radioactivity per assay, 0.14 μCi). […]

B1: active DIESL: DIESL polypeptide (human transmembrane protein 68, SEQ ID NO: 1) with triacylglycerol synthase activity (protein, listed as Homo sapiens)
chain: MIDKNQTCGVGQDSVPYMICLIHILEEWFGVEQLEDYLNFANYLLWVFTPLILLILPYFTIFLLYLTIIFLHIYKRKNVLKEAYSHNLWDGARKTVATLWDGHAAVWHGYEVHGMEKIPEDGPALIIFYHGAIPIDFYYFMAKIFIHKGRTCRVVADHFVFKIPGFSLLLDVFCALHGPREKCVEILRSGHLLAISPGGVREALISDETYNIVWGHRRGFAQVAIDAKVPIIPMFTQNIREGFRSLGGTRLFRWLYEKFRYPFAPMYGGFPVKLRTYLGDPIPYDPQITAEELAEKTKNAVQALIDKHQRIPGNIMSALLERFH
TAG abundance as share of the lipidome [1]: 20.5 % of the lipidome
TAG synthesis in E. coli (E. coli): induced de novo TAG synthesis
